Experimental data from patent publication US20250171562A1.
Values belong to the binder of their own block, whether it stands above or below them.

Biological target: mixture of three Der p 2 specific recombinant human IgE clones H10, H12, P4E (human) (UniProt P01854)
Experiment: RBL-SX38 IgE displacement, FACS

mixture of three Der p 2 specific recombinant human IgE clones H10, H12, P4E (human), sequence (P01854 other isoform, or with tags, fused parts or gaps): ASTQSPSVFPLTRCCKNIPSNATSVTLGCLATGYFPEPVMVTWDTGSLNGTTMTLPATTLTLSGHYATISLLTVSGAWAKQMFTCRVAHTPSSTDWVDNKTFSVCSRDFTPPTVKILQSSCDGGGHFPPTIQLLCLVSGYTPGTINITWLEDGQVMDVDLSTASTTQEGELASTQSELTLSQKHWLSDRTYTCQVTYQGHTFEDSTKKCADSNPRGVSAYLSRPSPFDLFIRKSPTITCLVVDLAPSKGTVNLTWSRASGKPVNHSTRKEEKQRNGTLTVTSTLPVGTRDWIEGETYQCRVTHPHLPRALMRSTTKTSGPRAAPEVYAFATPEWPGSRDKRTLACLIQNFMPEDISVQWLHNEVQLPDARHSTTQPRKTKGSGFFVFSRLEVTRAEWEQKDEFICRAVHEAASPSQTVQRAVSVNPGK

- EC50: 65.8 nM
- Max effect/effect 1 µM: 96%
B1: CIgG4D1A1(G4S)1 (Fc fusion)
chain 1: GPPCPPCPAPEFLGGPSVFLFPPKPKDTLMISRTPEVTCVVVDVSQEDPEVQFNWYVDGVEVHNAKTKPREEQFNSTYRVVSVLTVLHQDWLNGKEYKCKVSNKGLPSSIEKTISKAKGQPREPQVYTLPPCQEEMTKNQVSLWCLVKGFYPSDIAVEWESNGQPENNYKTTPPVLDSDGSFFLYSRLTVDKSRWQEGNVFSCSVMHEALHNHYTQKSLSLSLGKGGGGSDVQLQESGGGLVQAGGSLRLSCAASGLTFSRCDMGWFRQAPGKEREFVARISANGASTHYADFVKGRFTISRDNAKNTVYLQMNYLKPEDTAVYICAAARVPVTWQLYDYWGQGTQVTVS
chain 2: GPPCPPCPAPEFLGGPSVFLFPPKPKDTLMISRTPEVTCVVVDVSQEDPEVQFNWYVDGVEVHNAKTKPREEQFNSTYRVVSVLTVLHQDWLNGKEYKCKVSNKGLPSSIEKTISKAKGQPREPQVCTLPPSQEEMTKNQVSLSCAVKGFYPSDIAVEWESNGQPENNYKTTPPVLDSDGSFFLVSRLTVDKSRWQEGNVFSCSVMHEALHNHYTQKSLSLSLGKGGGGSEVQLLESGGGLVQPGGSLRLSCAASGFTFGNYDMAWVRQAPGKRPEWVSSIDTGGDITHYADSVKGRFTISRDNAKNTLYLQMNSLRPEDTAVYWCATDEEYALGPNEFDYYGQGTLVTVSS

- EC50: 1.5 nM
- Max effect/effect 1 µM: 98%
B2: CIgG4B2A1(G4S)3 (Fc fusion)
chain 1: GPPCPPCPAPEFLGGPSVFLFPPKPKDTLMISRTPEVTCVVVDVSQEDPEVQFNWYVDGVEVHNAKTKPREEQFNSTYRVVSVLTVLHQDWLNGKEYKCKVSNKGLPSSIEKTISKAKGQPREPQVYTLPPCQEEMTKNQVSLWCLVKGFYPSDIAVEWESNGQPENNYKTTPPVLDSDGSFFLYSRLTVDKSRWQEGNVFSCSVMHEALHNHYTQKSLSLSLGKGGGGSGGGGSGGGGSQVQLVESGGGLVQAGGSLRLSCAVFGSTFSNNVADWYRQAPGKQRELVARISASGATREYGDSVKGRFTISRDDAKNTMYLQMNNLKPEDTAVYRCHKIEWEDLSRKDYWGQGTQVTVS
chain 2: GPPCPPCPAPEFLGGPSVFLFPPKPKDTLMISRTPEVTCVVVDVSQEDPEVQFNWYVDGVEVHNAKTKPREEQFNSTYRVVSVLTVLHQDWLNGKEYKCKVSNKGLPSSIEKTISKAKGQPREPQVCTLPPSQEEMTKNQVSLSCAVKGFYPSDIAVEWESNGQPENNYKTTPPVLDSDGSFFLVSRLTVDKSRWQEGNVFSCSVMHEALHNHYTQKSLSLSLGKGGGGSGGGGSGGGGSEVQLLESGGGLVQPGGSLRLSCAASGFTFGNYDMAWVRQAPGKRPEWVSSIDTGGDITHYADSVKGRFTISRDNAKNTLYLQMNSLRPEDTAVYWCATDEEYALGPNEFDYYGQGTLVTVSS

- EC50: 87.2 nM
- Max effect/effect 1 µM: 96%
B3: CIgG4D1A1(G4S)2 (Fc fusion)
chain 1: GPPCPPCPAPEFLGGPSVFLFPPKPKDTLMISRTPEVTCVVVDVSQEDPEVQFNWYVDGVEVHNAKTKPREEQFNSTYRVVSVLTVLHQDWLNGKEYKCKVSNKGLPSSIEKTISKAKGQPREPQVYTLPPCQEEMTKNQVSLWCLVKGFYPSDIAVEWESNGQPENNYKTTPPVLDSDGSFFLYSRLTVDKSRWQEGNVFSCSVMHEALHNHYTQKSLSLSLGKGGGGSGGGGSDVQLQESGGGLVQAGGSLRLSCAASGLTFSRCDMGWFRQAPGKEREFVARISANGASTHYADFVKGRFTISRDNAKNTVYLQMNYLKPEDTAVYICAAARVPVTWQLYDYWGQGTQVTVS
chain 2: GPPCPPCPAPEFLGGPSVFLFPPKPKDTLMISRTPEVTCVVVDVSQEDPEVQFNWYVDGVEVHNAKTKPREEQFNSTYRVVSVLTVLHQDWLNGKEYKCKVSNKGLPSSIEKTISKAKGQPREPQVCTLPPSQEEMTKNQVSLSCAVKGFYPSDIAVEWESNGQPENNYKTTPPVLDSDGSFFLVSRLTVDKSRWQEGNVFSCSVMHEALHNHYTQKSLSLSLGKGGGGSGGGGSEVQLLESGGGLVQPGGSLRLSCAASGFTFGNYDMAWVRQAPGKRPEWVSSIDTGGDITHYADSVKGRFTISRDNAKNTLYLQMNSLRPEDTAVYWCATDEEYALGPNEFDYYGQGTLVTVSS

- EC50: 1.6 nM
- Max effect/effect 1 µM: 100%
B4: NIgG4D1A1(G4S)2 (Fc fusion)
chain 1: DVQLQESGGGLVQAGGSLRLSCAASGLTFSRCDMGWFRQAPGKEREFVARISANGASTHYADFVKGRFTISRDNAKNTVYLQMNYLKPEDTAVYICAAARVPVTWQLYDYWGQGTQVTVSGGGGSGGGGSGPPCPPCPAPEFLGGPSVFLFPPKPKDTLMISRTPEVTCVVVDVSQEDPEVQFNWYVDGVEVHNAKTKPREEQFNSTYRVVSVLTVLHQDWLNGKEYKCKVSNKGLPSSIEKTISKAKGQPREPQVYTLPPCQEEMTKNQVSLWCLVKGFYPSDIAVEWESNGQPENNYKTTPPVLDSDGSFFLYSRLTVDKSRWQEGNVFSCSVMHEALHNHYTQKSLSLSLGK
chain 2: EVQLLESGGGLVQPGGSLRLSCAASGFTFGNYDMAWVRQAPGKRPEWVSSIDTGGDITHYADSVKGRFTISRDNAKNTLYLQMNSLRPEDTAVYWCATDEEYALGPNEFDYYGQGTLVTVSSGGGGSGGGGSGPPCPPCPAPEFLGGPSVFLFPPKPKDTLMISRTPEVTCVVVDVSQEDPEVQFNWYVDGVEVHNAKTKPREEQFNSTYRVVSVLTVLHQDWLNGKEYKCKVSNKGLPSSIEKTISKAKGQPREPQVCTLPPSQEEMTKNQVSLSCAVKGFYPSDIAVEWESNGQPENNYKTTPPVLDSDGSFFLVSRLTVDKSRWQEGNVFSCSVMHEALHNHYTQKSLSLSLGK

- EC50: 2 nM
- Max effect/effect 1 µM: 99%
B5: NIgG4D1A1(G4S)3 (Fc fusion)
chain 1: DVQLQESGGGLVQAGGSLRLSCAASGLTFSRCDMGWFRQAPGKEREFVARISANGASTHYADFVKGRFTISRDNAKNTVYLQMNYLKPEDTAVYICAAARVPVTWQLYDYWGQGTQVTVSGGGGSGGGGSGGGGSGPPCPPCPAPEFLGGPSVFLFPPKPKDTLMISRTPEVTCVVVDVSQEDPEVQFNWYVDGVEVHNAKTKPREEQFNSTYRVVSVLTVLHQDWLNGKEYKCKVSNKGLPSSIEKTISKAKGQPREPQVYTLPPCQEEMTKNQVSLWCLVKGFYPSDIAVEWESNGQPENNYKTTPPVLDSDGSFFLYSRLTVDKSRWQEGNVFSCSVMHEALHNHYTQKSLSLSLGK
chain 2: EVQLLESGGGLVQPGGSLRLSCAASGFTFGNYDMAWVRQAPGKRPEWVSSIDTGGDITHYADSVKGRFTISRDNAKNTLYLQMNSLRPEDTAVYWCATDEEYALGPNEFDYYGQGTLVTVSSGGGGSGGGGSGGGGSGPPCPPCPAPEFLGGPSVFLFPPKPKDTLMISRTPEVTCVVVDVSQEDPEVQFNWYVDGVEVHNAKTKPREEQFNSTYRVVSVLTVLHQDWLNGKEYKCKVSNKGLPSSIEKTISKAKGQPREPQVCTLPPSQEEMTKNQVSLSCAVKGFYPSDIAVEWESNGQPENNYKTTPPVLDSDGSFFLVSRLTVDKSRWQEGNVFSCSVMHEALHNHYTQKSLSLSLGK

- EC50: 1.4 nM
- Max effect/effect 1 µM: 99%
B6: NIgG4D1A1(G4S)1 (Fc fusion)
chain 1: DVQLQESGGGLVQAGGSLRLSCAASGLTFSRCDMGWFRQAPGKEREFVARISANGASTHYADFVKGRFTISRDNAKNTVYLQMNYLKPEDTAVYICAAARVPVTWQLYDYWGQGTQVTVSGGGGSGPPCPPCPAPEFLGGPSVFLFPPKPKDTLMISRTPEVTCVVVDVSQEDPEVQFNWYVDGVEVHNAKTKPREEQFNSTYRVVSVLTVLHQDWLNGKEYKCKVSNKGLPSSIEKTISKAKGQPREPQVYTLPPCQEEMTKNQVSLWCLVKGFYPSDIAVEWESNGQPENNYKTTPPVLDSDGSFFLYSRLTVDKSRWQEGNVFSCSVMHEALHNHYTQKSLSLSLGK
chain 2: EVQLLESGGGLVQPGGSLRLSCAASGFTFGNYDMAWVRQAPGKRPEWVSSIDTGGDITHYADSVKGRFTISRDNAKNTLYLQMNSLRPEDTAVYWCATDEEYALGPNEFDYYGQGTLVTVSSGGGGSGPPCPPCPAPEFLGGPSVFLFPPKPKDTLMISRTPEVTCVVVDVSQEDPEVQFNWYVDGVEVHNAKTKPREEQFNSTYRVVSVLTVLHQDWLNGKEYKCKVSNKGLPSSIEKTISKAKGQPREPQVCTLPPSQEEMTKNQVSLSCAVKGFYPSDIAVEWESNGQPENNYKTTPPVLDSDGSFFLVSRLTVDKSRWQEGNVFSCSVMHEALHNHYTQKSLSLSLGK

- Max effect/effect 1 µM: 16%
B7: CIgG4D1A1(RS) (Fc fusion)
chain 1: GPPCPPCPAPEFLGGPSVFLFPPKPKDTLMISRTPEVTCVVVDVSQEDPEVQFNWYVDGVEVHNAKTKPREEQFNSTYRVVSVLTVLHQDWLNGKEYKCKVSNKGLPSSIEKTISKAKGQPREPQVYTLPPCQEEMTKNQVSLWCLVKGFYPSDIAVEWESNGQPENNYKTTPPVLDSDGSFFLYSRLTVDKSRWQEGNVFSCSVMHEALHNHYTQKSLSLSLGKRSDVQLQESGGGLVQAGGSLRLSCAASGLTFSRCDMGWFRQAPGKEREFVARISANGASTHYADFVKGRFTISRDNAKNTVYLQMNYLKPEDTAVYICAAARVPVTWQLYDYWGQGTQVTVS
chain 2: GPPCPPCPAPEFLGGPSVFLFPPKPKDTLMISRTPEVTCVVVDVSQEDPEVQFNWYVDGVEVHNAKTKPREEQFNSTYRVVSVLTVLHQDWLNGKEYKCKVSNKGLPSSIEKTISKAKGQPREPQVCTLPPSQEEMTKNQVSLSCAVKGFYPSDIAVEWESNGQPENNYKTTPPVLDSDGSFFLVSRLTVDKSRWQEGNVFSCSVMHEALHNHYTQKSLSLSLGKRSEVQLLESGGGLVQPGGSLRLSCAASGFTFGNYDMAWVRQAPGKRPEWVSSIDTGGDITHYADSVKGRFTISRDNAKNTLYLQMNSLRPEDTAVYWCATDEEYALGPNEFDYYGQGTLVTVSS

- EC50: 1.6 nM
- Max effect/effect 1 µM: 97%
B8: NIgG4D1A1(RS) (Fc fusion)
chain 1: DVQLQESGGGLVQAGGSLRLSCAASGLTFSRCDMGWFRQAPGKEREFVARISANGASTHYADFVKGRFTISRDNAKNTVYLQMNYLKPEDTAVYICAAARVPVTWQLYDYWGQGTQVTVSRSGPPCPPCPAPEFLGGPSVFLFPPKPKDTLMISRTPEVTCVVVDVSQEDPEVQFNWYVDGVEVHNAKTKPREEQFNSTYRVVSVLTVLHQDWLNGKEYKCKVSNKGLPSSIEKTISKAKGQPREPQVYTLPPCQEEMTKNQVSLWCLVKGFYPSDIAVEWESNGQPENNYKTTPPVLDSDGSFFLYSRLTVDKSRWQEGNVFSCSVMHEALHNHYTQKSLSLSLGK
chain 2: EVQLLESGGGLVQPGGSLRLSCAASGFTFGNYDMAWVRQAPGKRPEWVSSIDTGGDITHYADSVKGRFTISRDNAKNTLYLQMNSLRPEDTAVYWCATDEEYALGPNEFDYYGQGTLVTVSSRSGPPCPPCPAPEFLGGPSVFLFPPKPKDTLMISRTPEVTCVVVDVSQEDPEVQFNWYVDGVEVHNAKTKPREEQFNSTYRVVSVLTVLHQDWLNGKEYKCKVSNKGLPSSIEKTISKAKGQPREPQVCTLPPSQEEMTKNQVSLSCAVKGFYPSDIAVEWESNGQPENNYKTTPPVLDSDGSFFLVSRLTVDKSRWQEGNVFSCSVMHEALHNHYTQKSLSLSLGK
